B1: hTIGIT (receptor)
chain: MMTGTIETTGNISAEKGGSIILQCHLSSTTAQVTQVNWEQQDQLLAICNADLGWHISPSFKDRVAPGPGLGLTLQSLTVNDTGEYFCIYHTYPDGTYTGRIFLEVLESSVAEHGARFQIP
modifications: biotinylated antigen (site not given)
Kd (TIGIT55-14): 139 nM | Kd (TIGIT55-05): 97.6 nM | Kd (TIGIT55-08): 113 nM | Kd (TIGIT55-06): 153 nM | Kd (TIGIT55-01): 15.9 nM | Kd (TIGIT55-11): 327 nM | Kd (TIGIT55-13): 112 nM

Reference: patent publication US20220307010A1 (published 2022)
